According to patent US20260116951A1 (DUCENTIS BIOTHERAPEUTICS, published 2026):

Assays:
[1] = target: T1, Recombinant Human CD200R, His-tagged (Creative Biomart CD200R1-320H) (human, UniProt Q8TD46 27-266); assay: SPR (BIAcore)
T1 construct: Bought; also called human CD200 receptor; not shown: His tag
T1 sequence (looked up): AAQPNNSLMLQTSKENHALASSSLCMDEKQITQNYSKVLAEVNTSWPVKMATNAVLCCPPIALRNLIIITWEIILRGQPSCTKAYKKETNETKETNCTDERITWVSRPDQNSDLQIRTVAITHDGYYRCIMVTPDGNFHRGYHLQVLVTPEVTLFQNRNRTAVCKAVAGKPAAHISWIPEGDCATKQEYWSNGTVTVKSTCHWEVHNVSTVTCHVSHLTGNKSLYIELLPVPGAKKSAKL
Procedure: For human CD200 constructs: anti-human Fc (GE Healthcare) was covalently immobilized on a BIAcore CM5 sensor chip (Cytiva, BR100530) by amine coupling using a Cytiva kit (BR100839) following the manufacturer's instructions, targeting immobilization of 8,000-11,000 RU. CD200-Fc proteins were diluted to 0.5 μg/mL to 4 μg/mL in running Buffer (1×HBS-EP+pH7.4 (Cytiva BR100669), HEPES Buffered Saline pH 7.4 containing 3 mM EDTA and 0.05% v/v Surfactant P20) and flowed for 25 to 100 seconds at 10 μL/min over the immobilized Anti-Human IgG Fc, with a stabilization time of 60 seconds. Between 35 and 250 RUs of CD200-Fc were captured, with higher RUs used for cynomolgus CD200R binding experiments. […] Analysis temperature was 25° C. […]
(§1) For mouse CD200 constructs, muCD200R-Fc (Creative Biomart CD200R1-458M) diluted to 1 μg/mL in running buffer was flowed over the immobilized Anti-Human IgG Fc, with CD200 monomers serially diluted and flowed over captured CD200R. […] Data analysis: experimental sensorgrams were analyzed in BIAevaluation software (GE Healthcare). […] Closeness of fit was determined by algorithms provided by the manufacturer in the BIAevaluation software, and data accepted if the Chi² value was less than 10% of Rₘₐₓ, and the U value was less than or equal to 15.

[2] = target: T2, Recombinant Cyno CD200R, His-tagged (Creative Biomart CD200R1-3483C) (cynomolgus monkey); assay: SPR, cyno CD200R1 flowed over immobilized CD200-Fc, 25 C, 1:1 fit
T2 construct: Bought; also called cynomolgus CD200R1; cynomolgus CD200R
Procedure: (§2) For human CD200 constructs: anti-human Fc (GE Healthcare) was covalently immobilized on a BIAcore CM5 sensor chip (Cytiva, BR100530) by amine coupling using a Cytiva kit (BR100839) following the manufacturer's instructions, targeting immobilization of 8,000-11,000 RU. CD200-Fc proteins were diluted to 0.5 μg/mL to 4 μg/mL in running Buffer (1×HBS-EP+pH7.4 (Cytiva BR100669), HEPES Buffered Saline pH 7.4 containing 3 mM EDTA and 0.05% v/v Surfactant P20) and flowed for 25 to 100 seconds at 10 μL/min over the immobilized Anti-Human IgG Fc, with a stabilization time of 60 seconds. Between 35 and 250 RUs of CD200-Fc were captured, with higher RUs used for cynomolgus CD200R binding experiments. […] Analysis temperature was 25° C. This was followed by regeneration of the surface with 30-90 second pulse of 3M MgCl₂ flowed at […] flow rate followed by stabilization of the surface with 60 second flow of running buffer.
(§3) Curves obtained were fitted to 1:1 Langmuir binding model by setting Rmax and RI as local parameters. Rate equations using standard parameters (e.g. ligand concentration, time) were used for iterative curve fitting. […] Means of 2 experiments carried out on the same day are shown with standard deviation. Residue numbering for CD200 proteins refers to the pre-protein, containing a signal peptide which is cleaved during insertion into the endoplasmic reticulum.

[3] = target: T1, Recombinant Human CD200R, His-tagged …; assay: SPR (BIAcore T200), CD200-Fc captured on anti-human Fc, CD200R flowed, 25 C, 1:1 fit
Procedure: (§4) The experiments were performed on a GE Healthcare BIAcore T200. Human, cynomolgus and mouse CD200R proteins were purchased from Creative Biomart (CD200R1-320H, CD200R1-3483C, CD200R1-3280M). All measurements were performed in duplicate.
(§5) For human CD200 constructs: anti-human Fc (GE Healthcare) was covalently immobilized on a BIAcore CM5 sensor chip (Cytiva, BR100530) by amine coupling using a Cytiva kit (BR100839) following the manufacturer's instructions, targeting immobilization of 8,000-11,000 RU. CD200-Fc proteins were diluted to 0.5 μg/mL to 4 μg/mL in running Buffer (1×HBS-EP+pH7.4 (Cytiva BR100669), HEPES Buffered Saline pH 7.4 containing 3 mM EDTA and 0.05% v/v Surfactant P20) and flowed for 25 to 100 seconds at 10 μL/min over the immobilized Anti-Human IgG Fc, with a stabilization time of 60 seconds. […]
as §1

[4] = target: T2, Recombinant Cyno CD200R, His-tagged …; assay: SPR (BIAcore T200), CD200-Fc captured on anti-human Fc, cyno CD200R flowed, 25 C, 1:1 fit
Procedure: as §4, §5, §1

[5] = target: T1, Recombinant Human CD200R, His-tagged …; assay: SPR, CD200R flowed over immobilized CD200-Fc, 25 C, 1:1 fit; reference is wild-type CD200-Fc DS-155
Procedure: as §2, §3

[6] = target: T1, Recombinant Human CD200R, His-tagged …; assay: SPR (BIAcore T200), CD200-Fc captured on anti-human Fc, CD200R flowed, 25 C, 1:1 fit, mean of two runs
Procedure: as §4, §2
(§6) For mouse CD200 constructs, muCD200R-Fc (Creative Biomart CD200R1-458M) diluted to 1 μg/mL in running buffer was flowed over the immobilized Anti-Human IgG Fc, with CD200 monomers serially diluted and flowed over captured CD200R. Other details were as above. Data analysis: experimental sensorgrams were analyzed in BIAevaluation software (GE Healthcare). The curves obtained were fitted to 1:1 Langmuir binding model by setting Rmax and RI as local parameters. Rate equations using standard parameters (e.g. ligand concentration, time) were used for iterative curve fitting. Closeness of fit was determined by algorithms provided by the manufacturer in the BIAevaluation software, and data accepted if the Chi² value was less than 10% of Rₘₐₓ, and the U value was less than or equal to 15.

[7] = target: T1, Recombinant Human CD200R, His-tagged …; assay: SPR (BIAcore), DS-118 captured (0.5 ug/mL), HuCD200R1 flowed at 100 nM to 6.25 nM, 25 C, 1:1 Binding model, run 1
Procedure: as §2, §6

[8] = target: T1, Recombinant Human CD200R, His-tagged …; assay: SPR (BIAcore), DS-118 captured (0.5 ug/mL), HuCD200R1 flowed at 100 nM to 6.25 nM, 25 C, 1:1 Binding model, run 2
Procedure: as §2, §6

[9] = target: T2, Recombinant Cyno CD200R, His-tagged …; assay: SPR (BIAcore), DS-118 captured (0.5 ug/mL), CynoCD200R1 flowed at 1000 nM to 62.5 nM, 25 C, 1:1 Binding model, run 1
Procedure: as §2, §6

- T1/2 [2]: 18.2 s
- t½ [4]: 18.2 s
- Kd [9]: 207 nM
- koff [9]: 0.0164 s⁻¹
- kon [9]: 79200 M⁻¹ s⁻¹
B1: DS-118 (mutated human CD200-Fc fusion protein, K130Y, I131Y, IgG4 S228P Fc) (Fc fusion)
chain: QVQVVTQDEREQLYTPASLKCSLQNAQEALIVTWQKKKAVSPENMVTFSENHGVVIQPAYKDKINITQLGLQNSTITFWNITLEDEGCYMCLFNTFGFGYYSGTACLTVYVQPIVSLHYKFSEDHLNITCSATARPAPMVFWKVPRSGIENSTVTLSHPNGTTSVTSILHIKDPKNQVGKEVICQVLHLGTVTDFKQTVNKGPPCPPCPAPEFLGGPSVFLFPPKPKDTLMISRTPEVTCVVVDVSQEDPEVQFNWYVDGVEVHNAKTKPREEQFNSTYRVVSVLTVLHQDWLNGKEYKCKVSNKGLPSSIEKTISKAKGQPREPQVYTLPPSQEEMTKNQVSLTCLVKGFYPSDIAVEWESNGQPENNYKTTPPVLDSDGSFFLYSRLTVDKSRWQEGNVFSCSVMHEALHNHYTQKSLSLSLGK
notes: also called mutated CD200-Fc; mutant CD200-Fc
- fold greater affinity than wild-type CD200-Fc (DS-155) [1]: ~137 fold
- t½ [3]: 37.9 min
- fold increase in affinity from wild type (DS-155) [5]: > 130 fold
- Kd [6]: 1.3 nM
- koff [6]: 0.000304 s⁻¹
- kon [6]: 231000 M⁻¹ s⁻¹
- Kd [7]: 1.21 nM
- koff [7]: 0.000278 s⁻¹
- kon [7]: 230000 M⁻¹ s⁻¹
- Kd [8]: 1.42 nM
- koff [8]: 0.000329 s⁻¹
- kon [8]: 232000 M⁻¹ s⁻¹
